For 20 molecules, koff results are on record in US20220380463A1 (Adimab, published 2022).

By koff is commonly meant the rate constant with which the complex falls apart. The low end stands for slow dissociation, the high end for fast dissociation.

In this assay the target is T1, Cynomolgus CD3εδ Fc heterodimer (Cy CD3ε Fc / CD3δ Fc-HIS) (cynomolgus, UniProt Q95LI8 22-100).
T1 chain 1: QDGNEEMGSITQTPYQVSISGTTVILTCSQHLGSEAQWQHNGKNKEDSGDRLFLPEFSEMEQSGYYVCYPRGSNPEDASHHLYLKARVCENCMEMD
T1 chain 2: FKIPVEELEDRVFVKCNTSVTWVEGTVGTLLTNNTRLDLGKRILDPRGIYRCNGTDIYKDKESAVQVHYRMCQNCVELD
The assay is described as follows: BLI (Octet), IgG on AHC sensor, pH 6.0.

B1: SAD10319_P02_A04 (ADI-57307) (antibody, V domains shown)
VH: QVQLVQSGAEVKKPGASVKVSCKASGYTFDSYSMHWVRQAPGQRLEWMGWINPDTGATDYSQKFQGRVTITRDTSASTAYMELSSLRSEDTAVYYCARDHYGHYFYDVWGQGTLVTVSS
VL: DIVMTQSPDSLAVSLGERATINCKSSQSLLNARTGKNYLAWYQQKPGQPPKLLIYWASTRESGVPDRFSGSGSGTDFTLTISSLQAEDVAVYYCKQSYSRRTFGGGTKVEIK
notes: IgG; also called Ab247
B1 registered a koff of 0.0284 s⁻¹.

B2: SAD10319_P03_D08 (ADI-57327) (antibody, V domains shown)
VH: QVQLVQSGAEVKKPGASVKVSCKASGYTFYSYEMHWVRQAPGQRLDWMGWINPQTGATKYSQKFQGRVTITRDTSASTAYMELSSLRSEDTAVYYCARDAYHHYFYDVWGQGTLVTVSS
VL: DIVMTQSPDSLAVSLGERATINCKSSQSLLNARTGKNYLAWYQQKPGQPPKLLIYWASTRESGVPDRFSGSGSGTDFTLTISSLQAEDVAVYYCKQSYSRRTFGGGTKVEIK
notes: IgG; also called Ab20
Molecule B2 had an off-rate constant (koff) of 0.02 s⁻¹. The koff values of the last two molecules are within 1.5-fold of each other.

B3: SAD10319_P02_B06 (ADI-57321) (antibody, V domains shown)
VH: QVQLVQSGAEVKKPGASVKVSCKASGYTFTSYTMHWVRQAPGQRPEWMGSINAGTGFTDYSQKFQGRVTITRDTSASTAYMELSSLRSEDTAVYYCARDHYGHYFYDVWGQGTLVTVSS
VL: DIVMTQSPDSLAVSLGERATINCKSSQSLLNARTGKNYLAWYQQKPGQPPKLLIYWASTRESGVPDRFSGSGSGTDFTLTISSLQAEDVAVYYCKQSYSRRTFGGGTKVEIK
notes: IgG; also called Ab9
In turn, B3 displayed a dissociation rate constant (koff) of 0.00531 s⁻¹.

B4: SAD10319_P03_E08 (ADI-48637) (antibody, V domains shown)
VH: QVQLVQSGAEVKKPGASVKVSCKASGYTFNDYAMHWVRQAPGQRLEWMGYINGTGATVYSQKFQGRVTITRDTSASTAYMELSSLRSEDTAVYYCARDAYHHYFYDVWSQGTLVTVSS
VL: DIVMTQSPDSLAVSLGERATINCKSSQSLLNARTGKNYLAWYQQKPGQPPKLLIYWASTRESGVPDRFSGSGSGTDFTLTISSLQAEDVAVYYCKQSYSRRTFGGGTKVEIK
notes: IgG; also called Ab21
Molecule B4 had a dissociation rate constant (koff) of 0.0197 s⁻¹.

B5: SAD10319_P02_C04 (ADI-57309) (antibody, V domains shown)
VH: QVQLVQSGAEVKKPGASVKVSCKASGYTFESYSMHWVRQAPGQRLEWMGWINPATGATDYSQKFQGRVTITRDTSASTAYMELSSLRSEDTAVYYCARDAYHHYFYDVWGQGTLVTVSS
VL: DIVMTQSPDSLAVSLGERATINCKSSQSLLNARTGKNYLAWYQQKPGQPPKLLIYWASTRESGVPDRFSGSGSGTDFTLTISSLQAEDVAVYYCKQSYSRRTFGGGTKVEIK
notes: IgG; also called Ab250
With B5, the koff was 0.0215 s⁻¹.

B6: SAD10319_P02_G06 (ADI-48632) (antibody, V domains shown)
VH: QVQLVQSGAEVKKPGASVKVSCKASGYTFTSYAMHWVRQAPGQRLEWMGWINPDTGATVYSQKFQGRVTITRDTSASTAYMELSSLRSEDTAVYYCARDAYHHYFYDVWGQGTLVTVSS
VL: DIVMTQSPDSLAVSLGERATINCKSSQSLLNARTGKNYLAWYQQKPGQPPKLLIYWASTRESGVPDRFSGSGSGTDFTLTISSLQAEDVAVYYCKQSYSRRTFGGGTKVEIK
notes: IgG; also called Ab15
As to B6, the dissociation rate constant (koff) amounted to 0.0242 s⁻¹.

B7: SAD10319_P02_F05 (ADI-57317) (antibody, V domains shown)
VH: QVQLVQSGAEVKKPGASVKVSCKASGYTFNNYAMHWVRQAPGQRLEWMGWIDAGTGNTDYSQKFQGRVTITRDTSASTAYMELSSLRSEDTAVYYCARDAHHRYFYDVWGQGTLVTVSS
VL: DIVMTQSPDSLAVSLGERATINCKSSQSLLNARTGKNYLAWYQQKPGQPPKLLIYWASTRESGVPDRFSGSGSGTDFTLTISSLQAEDVAVYYCKQSYSRRTFGGGTKVEIK
notes: IgG; also called Ab5
The molecule B7 came in with a koff of 0.0262 s⁻¹.

B8: SAD10319_P03_G07 (ADI-57325) (antibody, V domains shown)
VH: QVQLVQSGAEVKKPGASVKVSCKASGYTFDSYLMHWVRQAPGQRLEWMGWIDAGTGATNYSQKFQGRVTITRDTSASTAYMELSSLRSEDTAVYYCARDAHGHYFYDVWGQGTLVTVSS
VL: DIVMTQSPDSLAVSLGERATINCKSSQSLLNARTGKNYLAWYQQKPGQPPKLLIYWASTRESGVPDRFSGSGSGTDFTLTISSLQAEDVAVYYCKQSYSRRTFGGGTKVEIK
notes: IgG; also called Ab18
With B8, the dissociation rate constant (koff) stood at 0.0187 s⁻¹.

B9: SAD10319_P02_H04 (ADI-57313) (antibody, V domains shown)
VH: QVQLVQSGAEVKKPGASVKVSCKASGYTFTSYAMHWVRQAPGQRLEWMGWINPDTGATKYSQKFQGRVTITRDTSASTAYMELSSLRSEDTAVYYCARDAHGHYFYDVWGQGTLVTVSS
VL: DIVMTQSPDSLAVSLGERATINCKSSQSLLNARTGKNYLAWYQQKPGQPPKLLIYWASTRESGVPDRFSGSGSGTDFTLTISSLQAEDVAVYYCKQSYSRRTFGGGTKVEIK
notes: IgG; also called Ab254
B9: the koff amounted to 0.00313 s⁻¹.

B10: SAD10319_P02_G05 (ADI-57318) (antibody, V domains shown)
VH: QVQLVQSGAEVKKPGASVKVSCKASGYTFTQYTMHWVRQAPGQRLEWMGSIDAGTGATKYSQKFQGRVTITRDTSASTAYMELSSLRSEDTAVYYCARDAYHHYFYDVWGQGTLVTVSS
VL: DIVMTQSPDSLAVSLGERATINCKSSQSLLNARTGKNYLAWYQQKPGQPPKLLIYWASTRESGVPDRFSGSGSGTDFTLTISSLQAEDVAVYYCKQSYSRRTFGGGTKVEIK
notes: IgG; also called Ab6
In turn, B10 displayed an off-rate (koff) of 0.00475 s⁻¹.

B11: SAD10319_P03_H07 (ADI-57326) (antibody, V domains shown)
VH: QVQLVQSGAEVKKPGASVKVSCKASGYTFNSYDMHWVRQAPGQRLEWMGWINPYTGETKYSQKFQGRVTITRDTSASTAYMELSSLRSEDTAVYYCARDHYGHYFYDVWGQGTLVTVSS
VL: DIVMTQSPDSLAVSLGERATINCKSSQSLLNARTGKNYLAWYQQKPGQPPKLLIYWASTRESGVPDRFSGSGSGTDFTLTISSLQAEDVAVYYCKQSYSRRTFGGGTKVEIK
notes: IgG; also called Ab19
B11 returned a koff of 0.0201 s⁻¹.

B12: SAD10319_P02_A05 (ADI-48629) (antibody, V domains shown)
VH: QVQLVQSGAEVKKPGASVKVSCKASGYTFDSYAMHWVRQAPGQRLEWMGWINPNTGATTYSQKFQGRVTITRDTSASTAYMELSSLRSEDTAVYYCARDHYGHYFYDVWGQGTLVTVSS
VL: DIVMTQSPDSLAVSLGERATINCKSSQSLLNARTGKNYLAWYQQKPGQPPKLLIYWASTRESGVPDRFSGSGSGTDFTLTISSLQAEDVAVYYCKQSYSRRTFGGGTKVEIK
notes: IgG; also called Ab255
B12 displayed a koff of 0.0269 s⁻¹.

B13: SAD10319_P02_D05 (ADI-57316) (antibody, V domains shown)
VH: QVQLVQSGAEVKKPGASVKVSCKASGYTFNDYAMHWVRQAPGQRLAWMGWIDAGTGNTYYSQKFQGRVTITRDTSASTAYMELSSLRSEDTAVYYCARDAHGHYFYDVWGQGTLVTVSS
VL: DIVMTQSPDSLAVSLGERATINCKSSQSLLNARTGKNYLAWYQQKPGQPPKLLIYWASTRESGVPDRFSGSGSGTDFTLTISSLQAEDVAVYYCKQSYSRRTFGGGTKVEIK
notes: IgG; also called Ab258
In the case of B13, the koff stood at 0.00296 s⁻¹.

B14: SAD10319_P02_D04 (ADI-57310) (antibody, V domains shown)
VH: QVQLVQSGAEVKKPGASVKVSCKASGYTFTSYAMHWVRQAPGQRLQWMGWIDAGTGNTYYSQKFQGRVTITRDTSASTAYMELSSLRSEDTAVYYCARDAHGHYFYDVWGQGTLVTVSS
VL: DIVMTQSPDSLAVSLGERATINCKSSQSLLNARTGKNYLAWYQQKPGQPPKLLIYWASTRESGVPDRFSGSGSGTDFTLTISSLQAEDVAVYYCKQSYSRRTFGGGTKVEIK
notes: IgG; also called Ab251
In turn, B14 had a koff of 0.00322 s⁻¹.

B15: SAD10319_P02_B04 (ADI-57308) (antibody, V domains shown)
VH: QVQLVQSGAEVKKPGASVKVSCKASGYTFADYAMHWVRQAPGQRLEWMGWINPGTGSTKYSQKFQGRVTITRDTSASTAYMELSSLRSEDTAVYYCARDAYGHYFYDHWGQGTLVTVSS
VL: DIVMTQSPDSLAVSLGERATINCKSSQSLLNARTGKNYLAWYQQKPGQPPKLLIYWASTRESGVPDRFSGSGSGTDFTLTISSLQAEDVAVYYCKQSYSRRTFGGGTKVEIK
notes: IgG; also called Ab249
The molecule B15 gave a koff of 0.0203 s⁻¹.

B16: SAD10319_P02_D06 (ADI-48631) (antibody, V domains shown)
VH: QVQLVQSGAEVKKPGASVKVSCKASGYTFTDYAMHWVRQAPGQRLEWMGWINAGTGATIYSQKFQGRVTITRDTSASTAYMELSSLRSEDTAVYYCARDAYHHYFYDVWGQGTLVTVSS
VL: DIVMTQSPDSLAVSLGERATINCKSSQSLLNARTGKNYLAWYQQKPGQPPKLLIYWASTRESGVPDRFSGSGSGTDFTLTISSLQAEDVAVYYCKQSYSRRTFGGGTKVEIK
notes: IgG; also called Ab11
B16 displayed a koff of 0.0212 s⁻¹. The koff values of the last two molecules are within 1.5-fold of each other.

B17: SAD10319_P02_H05 (ADI-57319) (antibody, V domains shown)
VH: QVQLVQSGAEVKKPGASVKVSCKASGYTFTQYSMHWVRQAPGQRLEWMGWINAGTGDTVYSQKFQGRVTITRDTSASTAYMELSSLRSEDTAVYYCARDHHGRYFYDVWGQGTLVTVSS
VL: DIVMTQSPDSLAVSLGERATINCKSSQSLFNARTGKNYLAWYQQKPGQPPKLLIYWASTRESGVPDRFSGSGSGTDFTLTISSLQAEDVAVYYCKQSYSRRTFGGGTKVEIK
notes: IgG; also called Ab7
In turn, B17 yielded a koff of 0.019 s⁻¹.

B18: SAD10319_P03_G08 (ADI-48638) (antibody, V domains shown)
VH: QVQLVQSGAEVKKPGASVKVSCKASGYTFSSYDMHWVRQAPGQRLEWMGWIDAGTGFTKYSQKFQGRVTITRDTSASTAYMELSSLRSEDTAVYYCARDAYGHYFYDHWGQGTLVTVSS
VL: DIVMTQSPDSLAVSLGERATINCKSSQSLLNARTGKNYLAWYQQKPGQPPKLLIYWASTRESGVPDRFSGSGSGTDFTLTISSLQAEDVAVYYCKQSYSRRTFGGGTKVEIK
notes: IgG; also called Ab22
B18 showed a koff of 0.0168 s⁻¹.

B19: SAD10319_P02_C05 (ADI-57315) (antibody, V domains shown)
VH: QVQLVQSGAEVKKPGASVKVSCKASGYTFTDYNMHWVRQAPGQRLEWMGWINPLTGTTKYSQKFQGRVTITRDTSASTAYMELSSLRSEDTAVYYCARDAYHHYFYDVWGQGTLVTVSS
VL: DIVMTQSPDSLAVSLGERATINCKSSQSLLNARTGKNYLAWYQQKPGQPPKLLIYWASTRESGVPDRFSGSGSGTDFTLTISSLQAEDVAVYYCKQSYSRRTFGGGTKVEIK
notes: IgG; also called Ab257
B19 registered a koff of 0.00697 s⁻¹.

B20: SAD10319_P02_B05 (ADI-57314) (antibody, V domains shown)
VH: QVQLVQSGAEVKKPGASVKVSCKASGYTFADYAMHWVRQAPGQRLEWMGSINAGTGNTYYSQKFQGRVTITRDTSASTAYMELSSLRSEDTAVYYCARDAYGHYFYDVWGQGTLVTVSS
VL: DIVMTQSPDSLAVSLGERATINCKSSQSLLNARTGKNYLAWYQQKPGQPPKLLIYWASTRESGVPDRFSGSGSGTDFTLTISSLQAEDVAVYYCKQSYSRRTFGGGTKVEIK
notes: IgG; also called Ab256
Molecule B20 had a koff of 0.0388 s⁻¹.
